Broadly, the Kd is a measure of binding affinity in units of concentration.

From patent US20230265211A1 (published 2023) come the findings set out here.

Assay [1] deals with T1, recombinant human PS (rhPS) (human, UniProt P07225 42-676).
T1 construct: Purified recombinant human protein S; also called Protein S; recombinant human protein S
T1 sequence (looked up): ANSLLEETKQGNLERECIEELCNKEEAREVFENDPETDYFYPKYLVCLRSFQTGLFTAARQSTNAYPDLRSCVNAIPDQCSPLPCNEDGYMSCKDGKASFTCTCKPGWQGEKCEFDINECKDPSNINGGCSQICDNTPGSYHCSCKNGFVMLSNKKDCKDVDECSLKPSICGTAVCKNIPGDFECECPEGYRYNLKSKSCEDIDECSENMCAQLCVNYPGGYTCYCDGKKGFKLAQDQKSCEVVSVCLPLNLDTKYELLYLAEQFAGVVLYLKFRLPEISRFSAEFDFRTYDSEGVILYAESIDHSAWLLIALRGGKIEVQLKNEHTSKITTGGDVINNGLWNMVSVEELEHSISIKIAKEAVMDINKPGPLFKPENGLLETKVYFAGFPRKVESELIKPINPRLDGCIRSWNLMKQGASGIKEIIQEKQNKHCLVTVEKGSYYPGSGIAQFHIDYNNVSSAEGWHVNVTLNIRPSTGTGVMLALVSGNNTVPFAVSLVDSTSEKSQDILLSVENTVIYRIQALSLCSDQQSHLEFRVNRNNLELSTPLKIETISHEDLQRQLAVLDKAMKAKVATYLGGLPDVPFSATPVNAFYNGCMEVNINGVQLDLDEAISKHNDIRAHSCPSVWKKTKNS
The assay can be described thus: ELISA on rhPS immobilized at 0.6, 1.25, 2.5 and 5 µg/mL, method of Beatty et al. 1987. As to the method: FIG. 6: Comparison of PS003 and PS003biv binding to immobilized PS in direct ELISA. rhPS (60 μL at 2.5 μg/mL in TBS containing 5 mM CaCl₂)) was immobilized onto ELISA wells, and the binding of PS003 and PS003biv (0-200 nM) was analyzed with a peroxidase-conjugated polyclonal anti-His6 tag antibody. Three individual experiments were done in simplicate, and the results are expressed as percentage of maximal binding for each nanobody. […] To further compare the ability of PS003 and PS003biv to bind to PS, the affinity of PS003 and PS003biv for rhPS was estimated as described (Beatty et al. J Immunol Methods 1987), by obtaining similar binding curves on rhPS immobilized at increasing concentrations (0.6, 1.25, 2.5 and 5 μg/mL in TBS containing 5 mM CaCl₂) in three individual experiments done in simplicate. For each nanobody, the dissociation constant (KD) was determined by using a formula based on the Law of Mass Action.
To further compare the ability of PS003 and PS003biv to bind to PS, the affinity of PS003 and PS003biv for rhPS was estimated as described (Beatty et al. J Immunol Methods 1987), by obtaining binding curves on rhPS immobilized at increasing concentrations (0.6, 1.25, 2.5 and 5 μg/mL in TBS containing 5 mM CaCl₂) in three individual experiments done in simplicate. […]

For assay [2], the target named is T1, recombinant human PS (rhPS). The assay can be described thus: cell-based or functional assay.
Assay [3] addresses T2, recombinant human Gas6 (rhGas6) (human, UniProt Q14393 49-678, limits assumed).
T2 sequence (looked up): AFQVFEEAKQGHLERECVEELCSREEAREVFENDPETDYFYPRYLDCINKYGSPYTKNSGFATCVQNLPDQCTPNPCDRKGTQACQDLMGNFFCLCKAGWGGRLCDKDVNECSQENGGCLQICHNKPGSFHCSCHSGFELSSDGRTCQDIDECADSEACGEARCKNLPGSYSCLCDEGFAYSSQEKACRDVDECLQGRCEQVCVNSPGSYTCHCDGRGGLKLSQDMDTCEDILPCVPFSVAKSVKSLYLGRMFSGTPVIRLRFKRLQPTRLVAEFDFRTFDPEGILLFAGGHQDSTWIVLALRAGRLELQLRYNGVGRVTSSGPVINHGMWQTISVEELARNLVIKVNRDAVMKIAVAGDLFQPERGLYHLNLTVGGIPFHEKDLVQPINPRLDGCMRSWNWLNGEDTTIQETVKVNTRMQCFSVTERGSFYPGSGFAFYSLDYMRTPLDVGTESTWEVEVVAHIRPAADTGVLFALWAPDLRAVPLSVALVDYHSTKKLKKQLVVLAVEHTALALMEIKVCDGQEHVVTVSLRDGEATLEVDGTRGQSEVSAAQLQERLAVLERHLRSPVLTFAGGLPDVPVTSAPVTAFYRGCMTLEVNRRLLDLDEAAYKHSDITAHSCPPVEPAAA
Kind of assay: direct ELISA on immobilized protein, anti-HA detection. As to the method: Vitamin K-dependent Gas6 is highly homologous to PS (47% overall homology) and, in contrast to other vitamin K-dependent proteins, also contains a SHBG-like domain. To further confirm the specificity of PS003 to PS, rhPS and rh Gas6 (60 μL, at 10 μg/mL in TBS containing 5 mM CaCl₂) were immobilized onto 96-well NUNC Maxisorp plates for 16 h at 4° C. Wells were washed with 3×200 μL of washing buffer (TBS containing 5 mM CaCl₂ and 0.1% Tween-20) and wells were blocked for 1 h at room temperature in TBS containing 5 mM CaCl₂ and 5% BSA. Wells were washed with 3×200 μL of washing buffer and increasing concentrations of PS003 (0-200 nM in TBS containing 5 mM CaCl₂ and 1% BSA, 50 μL/well) was incubated for 1 h at room temperature. Wells were washed with 3×200 μL of washing buffer, and a peroxidase-conjugated polyclonal anti-HA tag antibody (Abcam, 1 μg/mL in TBS containing 5 mM CaCl₂ and 1% BSA, 50 μL/well) was incubated for 1 h at room temperature. Wells were washed with 3×200 μL of washing buffer and 50 μL of TMB was added. Reactions were stopped by the addition of 50 μL of 2M H₂SO₄.
A general note: ELISA stands for enzyme-linked immunosorbent assay.

The target in assay [4] is T1, recombinant human PS (rhPS). Kind of assay: ratio of ELISA-derived KD values, reference PS003. The procedure:
To further compare the ability of PS003 and PS003biv to bind to PS, the affinity of PS003 and PS003biv for rhPS was estimated as described (Beatty et al. J Immunol Methods 1987), by obtaining binding curves on rhPS immobilized at increasing concentrations (0.6, 1.25, 2.5 and 5 μg/mL in TBS containing 5 mM CaCl₂) in three individual experiments done in simplicate. For each nanobody, the dissociation constant (KD) was determined by using a formula based on the Law of Mass Action.

The target in assay [5] is T3, recombinant murine PS (rmPS) (murine, UniProt Q08761 42-675).
T3 construct: also called recombinant murine protein S
T3 sequence (looked up): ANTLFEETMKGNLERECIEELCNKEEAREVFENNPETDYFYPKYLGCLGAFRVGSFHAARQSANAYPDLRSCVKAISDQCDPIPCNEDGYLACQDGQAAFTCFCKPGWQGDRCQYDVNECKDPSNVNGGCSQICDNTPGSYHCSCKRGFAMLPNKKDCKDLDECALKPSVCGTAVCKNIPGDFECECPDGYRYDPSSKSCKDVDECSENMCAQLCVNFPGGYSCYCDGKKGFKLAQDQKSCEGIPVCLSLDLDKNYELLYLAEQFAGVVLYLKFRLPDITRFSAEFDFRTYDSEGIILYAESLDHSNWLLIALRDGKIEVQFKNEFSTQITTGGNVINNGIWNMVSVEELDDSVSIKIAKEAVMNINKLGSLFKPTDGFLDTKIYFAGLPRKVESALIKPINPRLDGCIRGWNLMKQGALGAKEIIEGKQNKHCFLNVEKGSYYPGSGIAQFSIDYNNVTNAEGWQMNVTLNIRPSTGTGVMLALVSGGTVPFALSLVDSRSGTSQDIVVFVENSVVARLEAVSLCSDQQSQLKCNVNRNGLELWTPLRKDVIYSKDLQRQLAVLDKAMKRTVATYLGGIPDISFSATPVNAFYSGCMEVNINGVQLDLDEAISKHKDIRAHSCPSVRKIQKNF
Kind of assay: direct ELISA on immobilized rmPS (legend of FIG. 11). The source says: FIG. 11: Comparison of PS003biv and PS004biv binding to immobilized recombinant murine PS in direct ELISA. PS004biv is an in-house anti-human PS nanobody generated from a monovalent nanobody (PS004) identified after a selection on rhPS immobilized onto ELISA wells. PS004biv strongly binds to rhPS in direct ELISA but, in contrast to PS003biv, its epitope is localized within the N-terminal part of PS and not within the SHBG-like domain of PS (data not shown). The binding of PS003biv and PS004biv to immobilized rmPS was analyzed by ELISA.
As for rhPS, recombinant murine PS (rmPS) was expressed in HEK293 cells in the presence of 10 μg/mL vitamin K1, and purified by a two-step anion-exchange chromatography, as previously described (Fernandez et al. 2009). rmPS (60 μL at 10 μg/mL in TBS containing 5 mM CaCl₂) was immobilized onto 96-well NUNC Maxisorp plates, for 16 h at 4° C. Wells were washed with 3×200 μL of washing buffer (TBS containing 5 mM CaCl₂) and 0.1% Tween-20) and wells were blocked for 1 h at room temperature with TBS containing 5 mM CaCl₂ and 5% BSA. Wells were washed with 3×200 μL of washing buffer and increasing concentrations of PS003biv and PS004biv (0-50 nM in TBS containing 5 mM CaCl₂ and 1% BSA, 50 μL/well) were incubated for 1 h at room temperature. […]

The target of assay [6] is T2, recombinant human Gas6 (rhGas6). The assay can be described thus: direct ELISA on immobilized rhGas6, anti-His6 detection. The procedure:
FIG. 7: Epitope mapping of PS003biv and specificity of PS003biv for PS. Recombinant human PS (rhPS), a recombinant form of the PS SHBG-like region alone (rSHBG)), recombinant human Gas6 (rhGas6), or BSA (60 μL at 10 μg/mL in TBS containing 5 mM CaCl₂) were immobilized onto ELISA wells, and the binding of PS003biv (0.5 nM in TBS-0.1% Tween-5 mM CaCl₂)) was analyzed using a peroxidase-conjugated polyclonal anti-His6 tag antibody. The results are expressed as the percentage of the Abs_{450 nm} obtained on rhPS. Three individual experiments were done in simplicate.
Epitope mapping of PS003biv and specificity of PS003biv for PS rhPS, a recombinant form of the PS SHBG-like region alone (rSHBG) (Saposnik et al. 2003), recombinant human Gas6 (rhGas6), or BSA (60 μL at 10 μg/mL in 50 mM Tris, 150 mM NaCl, pH 7.4 (TBS) containing 5 mM CaCl₂) were immobilized onto 96-well NUNC Maxisorp plates, for 16 h at 4° C. Wells were washed with 3×200 μL of washing buffer (TBS containing 5 mM CaCl₂ and 0.1% Tween-20) and wells were blocked for 1 h at room temperature with TBS containing 5 mM CaCl₂ and 5% BSA. Wells were washed with 3×200 μL of washing buffer and 0.5 nM PS003biv (in TBS containing 5 mM CaCl₂, 0.1% Tween-20 and 2% BSA, 50 μL/well) were incubated for 1 h at room temperature. […] The results are expressed as the percentage of the Abs_{450 nm} obtained on rhPS. […]

B1: PS003 (VHH)
VHH: QVQLQESGGGLVQAGGSLRLSCAASGRTFSSYAMGWVRQAPGKEREFVAAISYNGGRTNYADSVKGRFTISRDNAKNTGYLQMNSLKPEDTAVYYCAANPRMWGSVDFRSWGQGTQVTVSS
notes: Llama VHH selected by phage display on rhPS; Purified form expressed from pET28 in E. coli with N-terminal His6-tag and C-terminal HA-tag; also called PS003 nanobody; monovalent PS003; not shown: N-terminal His6-tag from the pET28 format; C-terminal haemagglutinin (HA)-tag
B1: the dissociation constant Kd in assay [1] came out at 26.8 nM. Further, the “clotting times in APTT-based APC-cofactor activity plasma clotting assay (STACLOT PS); 6 nM rhPS, 2 µM nanobody” value in assay [2] was 2.8 fold. For the same molecule, the binding result in assay [3] is “no binding (tested: 20 nM)”.

B2: PS003biv (VHH)
chain: QVQLQESGGGLVQAGGSLRLSCAASGRTFSSYAMGWVRQAPGKEREFVAAISYNGGRTNYADSVKGRFTISRDNAKNTGYLQMNSLKPEDTAVYYCAANPRMWGSVDFRSWGQGTQVTVSSGGGSGGGSGGGSGGGSQVQLQESGGGLVQAGGSLRLSCAASGRTFSSYAMGWVRQAPGKEREFVAAISYNGGRTNYADSVKGRFTISRDNAKNTGYLQMNSLKPEDTAVYYCAANPRMWGSVDFRSWGQGTQVTVSS
notes: also called bivalent PS003; not shown: N-terminal His6-tag from the pET28 format; C-terminal haemagglutinin (HA)-tag
Consider B2, for which, in assay [4], the “fold higher affinity than PS003” value was found to be 1.9 fold. For the same molecule, the binding result is listed as “binds” in assay [5] and “no binding (tested: 0.5 nM)” in assay [6]. For the same molecule, the Kd in assay [1] is 13.8 nM. The “clotting times in APTT-based APC-cofactor activity plasma clotting assay (STACLOT PS); 6 nM rhPS, 2 µM nanobody” value in assay [2] amounted to 3.6 fold.
